Results taken from the Human Domainome abundance scans (Beltran et al. 2025).
± gives the uncertainty stated by the source.

B1: POU domain, class 3, transcription factor 2, residues 356 to 411; numbered along this chain, P20265 (parent)
chain: KKRTSIEVSVKGALESHFLKCPKPSAQEITSLADSLQLEKEVVRVWFCNRRQKEKR

Variants of: B1
Assay: abundance fitness (aPCA) (normalised: wild type 0, dead -1); higher = more abundant; growth selection in yeast, the domain comes from the species named
Conditions: Homo sapiens

Point of comparison: KKRTSIEVSVKGALESHFLHCPKPSAQEITSLADSLQLEKEVVRVWFCNRRQKEKR [K20H], abundance fitness -0.463 ± 0.27. Against it:
- KKRTSIEVSVKGALESHFLCCPKPSAQEITSLADSLQLEKEVVRVWFCNRRQKEKR [K20C] — within error, -0.392 ± 0.11
- KKRTSIEVSVKGALESHFLYCPKPSAQEITSLADSLQLEKEVVRVWFCNRRQKEKR [K20Y] — within error, -0.379 ± 0.17
- KKRTSIEVSVKGALESHFLPCPKPSAQEITSLADSLQLEKEVVRVWFCNRRQKEKR [K20P] — lower, -1.03 ± 0.16
- KKRTSIEVSVKGALESHFLFCPKPSAQEITSLADSLQLEKEVVRVWFCNRRQKEKR [K20F] — within error, -0.175 ± 0.15
- KKRTSIEVSVKGALESHFLLCPKPSAQEITSLADSLQLEKEVVRVWFCNRRQKEKR [K20L] — within error, -0.322 ± 0.082
- KKRTSIEVSVKGALESHFLGCPKPSAQEITSLADSLQLEKEVVRVWFCNRRQKEKR [K20G] — within error, -0.466 ± 0.09
- KKRTSIEVSVKGALESHFLACPKPSAQEITSLADSLQLEKEVVRVWFCNRRQKEKR [K20A] — within error, -0.319 ± 0.11
- KKRTSIEVSVKGALESHFLTCPKPSAQEITSLADSLQLEKEVVRVWFCNRRQKEKR [K20T] — within error, -0.16 ± 0.11
- KKRTSIEVSVKGALESHFLSCPKPSAQEITSLADSLQLEKEVVRVWFCNRRQKEKR [K20S] — within error, -0.248 ± 0.095
- KKRTSIEVSVKGALESHFLECPKPSAQEITSLADSLQLEKEVVRVWFCNRRQKEKR [K20E] — within error, -0.445 ± 0.12
- KKRTSIEVSVKGALESHFLVCPKPSAQEITSLADSLQLEKEVVRVWFCNRRQKEKR [K20V] — within error, -0.323 ± 0.096
- KKRTSIEVSVKGALESHFLMCPKPSAQEITSLADSLQLEKEVVRVWFCNRRQKEKR [K20M] — within error, -0.336 ± 0.12
- KKRTSIEVSVKGALESHFLRCPKPSAQEITSLADSLQLEKEVVRVWFCNRRQKEKR [K20R] — within error, -0.223 ± 0.076
- KKRTSIEVSVKGALESHFLWCPKPSAQEITSLADSLQLEKEVVRVWFCNRRQKEKR [K20W] — within error, -0.605 ± 0.12
- KKRTSIEVSVKGALESHFLDCPKPSAQEITSLADSLQLEKEVVRVWFCNRRQKEKR [K20D] — within error, -0.46 ± 0.2
- KKRTSIEVSVKGALESHFLNCPKPSAQEITSLADSLQLEKEVVRVWFCNRRQKEKR [K20N] — within error, -0.262 ± 0.13
- KKRTSIEVSVKGALESHFLQCPKPSAQEITSLADSLQLEKEVVRVWFCNRRQKEKR [K20Q] — within error, -0.443 ± 0.16
- KKRTSIEVSVKGALESHFLICPKPSAQEITSLADSLQLEKEVVRVWFCNRRQKEKR [K20I] — within error, -0.215 ± 0.13
- KKRTSIEVSVKGALESHRLKCPKPSAQEITSLADSLQLEKEVVRVWFCNRRQKEKR [F18R] — lower, -0.872 ± 0.1
- KKRTSIEVSVKGALESHCLKCPKPSAQEITSLADSLQLEKEVVRVWFCNRRQKEKR [F18C] — within error, -0.914 ± 0.21
- KKRTSIEVSVKGALESHALKCPKPSAQEITSLADSLQLEKEVVRVWFCNRRQKEKR [F18A] — lower, -0.902 ± 0.13
- KKRTSIEVSVKGALESHGLKCPKPSAQEITSLADSLQLEKEVVRVWFCNRRQKEKR [F18G] — lower, -0.976 ± 0.1
- KKRTSIEVSVKGALESHHLKCPKPSAQEITSLADSLQLEKEVVRVWFCNRRQKEKR [F18H] — within error, -0.938 ± 0.27
- KKRTSIEVSVKGALESHELKCPKPSAQEITSLADSLQLEKEVVRVWFCNRRQKEKR [F18E] — lower, -0.979 ± 0.21
- KKRTSIEVSVKGALESHDLKCPKPSAQEITSLADSLQLEKEVVRVWFCNRRQKEKR [F18D] — within error, -0.875 ± 0.17
- KKRTSIEVSVKGALESHWLKCPKPSAQEITSLADSLQLEKEVVRVWFCNRRQKEKR [F18W] — within error, -0.335 ± 0.1
- KKRTSIEVSVKGALESHLLKCPKPSAQEITSLADSLQLEKEVVRVWFCNRRQKEKR [F18L] — lower, -0.836 ± 0.1
- KKRTSIEVSVKGALESHTLKCPKPSAQEITSLADSLQLEKEVVRVWFCNRRQKEKR [F18T] — lower, -1.2 ± 0.4
- KKRTSIEVSVKGALESHKLKCPKPSAQEITSLADSLQLEKEVVRVWFCNRRQKEKR [F18K] — within error, -0.936 ± 0.3
- KKRTSIEVSVKGALESHVLKCPKPSAQEITSLADSLQLEKEVVRVWFCNRRQKEKR [F18V] — lower, -1.03 ± 0.12
- KKRTSIEVSVKGALESHSLKCPKPSAQEITSLADSLQLEKEVVRVWFCNRRQKEKR [F18S] — within error, -0.824 ± 0.12
- KKRTSIEVSVKGALESHMLKCPKPSAQEITSLADSLQLEKEVVRVWFCNRRQKEKR [F18M] — lower, -1.02 ± 0.23
- KKRTSIEVSVKGALESHILKCPKPSAQEITSLADSLQLEKEVVRVWFCNRRQKEKR [F18I] — lower, -1.1 ± 0.33
- KKRTSIEVSVKGALESHNLKCPKPSAQEITSLADSLQLEKEVVRVWFCNRRQKEKR [F18N] — within error, -0.856 ± 0.36
- KKRTSIEVSVKGALEYHFLKCPKPSAQEITSLADSLQLEKEVVRVWFCNRRQKEKR [S16Y] — within error, -0.382 ± 0.16
- KKRTSIEVSVKGALEWHFLKCPKPSAQEITSLADSLQLEKEVVRVWFCNRRQKEKR [S16W] — within error, -0.399 ± 0.11
- KKRTSIEVSVKGALESWFLKCPKPSAQEITSLADSLQLEKEVVRVWFCNRRQKEKR [H17W] — higher, -0.02 ± 0.098
- KKRTSIEVSVKGALESTFLKCPKPSAQEITSLADSLQLEKEVVRVWFCNRRQKEKR [H17T] — within error, -0.1 ± 0.11
- KKRTSIEVSVKGALESMFLKCPKPSAQEITSLADSLQLEKEVVRVWFCNRRQKEKR [H17M] — higher, -0.047 ± 0.11
- KKRTSIEVSVKGALESRFLKCPKPSAQEITSLADSLQLEKEVVRVWFCNRRQKEKR [H17R] — within error, -0.556 ± 0.085
- KKRTSIEVSVKGALESPFLKCPKPSAQEITSLADSLQLEKEVVRVWFCNRRQKEKR [H17P] — lower, -1.05 ± 0.25
- KKRTSIEVSVKGALESYFLKCPKPSAQEITSLADSLQLEKEVVRVWFCNRRQKEKR [H17Y] — higher, 0.156 ± 0.083
- KKRTSIEVSVKGALESKFLKCPKPSAQEITSLADSLQLEKEVVRVWFCNRRQKEKR [H17K] — within error, -0.364 ± 0.13
- KKRTSIEVSVKGALESQFLKCPKPSAQEITSLADSLQLEKEVVRVWFCNRRQKEKR [H17Q] — within error, -0.286 ± 0.13
- KKRTSIEVSVKGALESEFLKCPKPSAQEITSLADSLQLEKEVVRVWFCNRRQKEKR [H17E] — within error, -0.139 ± 0.1
- KKRTSIEVSVKGALESIFLKCPKPSAQEITSLADSLQLEKEVVRVWFCNRRQKEKR [H17I] — within error, -0.289 ± 0.16
